Bridge positions count the residues as written; N and C are the ends. Square brackets hold non-standard residues; d marks the D form. Ends that are not written are not given here. * marks the point of attachment. Acetyl(2-(4-imidazolyl)) = O=C(Cc1c[nH]cn1)*; Aib = CC(C)(N)C(=O)O
T1: human GIP receptor (human, UniProt P48546 22-466)
T1 sequence (looked up): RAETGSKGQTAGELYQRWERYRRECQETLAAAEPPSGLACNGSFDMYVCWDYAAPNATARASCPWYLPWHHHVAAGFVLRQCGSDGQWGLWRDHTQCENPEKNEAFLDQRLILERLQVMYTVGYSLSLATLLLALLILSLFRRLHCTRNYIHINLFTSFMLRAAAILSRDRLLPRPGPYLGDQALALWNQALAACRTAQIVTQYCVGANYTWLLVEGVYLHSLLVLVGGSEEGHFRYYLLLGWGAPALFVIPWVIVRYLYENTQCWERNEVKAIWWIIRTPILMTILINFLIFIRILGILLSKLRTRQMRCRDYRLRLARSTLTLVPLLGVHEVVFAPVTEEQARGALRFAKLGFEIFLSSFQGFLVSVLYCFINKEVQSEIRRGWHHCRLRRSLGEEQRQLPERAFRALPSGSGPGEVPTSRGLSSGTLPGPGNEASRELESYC


Columns and labels:
Test in all cases: cell-based or functional assay
human GLP-1 receptor = human GLP-1 receptor (human, UniProt P43220 24-463)
human GCG receptor = human GCG receptor (human, UniProt P47871 26-477)
Sequence of human GCG receptor (P47871 26-477): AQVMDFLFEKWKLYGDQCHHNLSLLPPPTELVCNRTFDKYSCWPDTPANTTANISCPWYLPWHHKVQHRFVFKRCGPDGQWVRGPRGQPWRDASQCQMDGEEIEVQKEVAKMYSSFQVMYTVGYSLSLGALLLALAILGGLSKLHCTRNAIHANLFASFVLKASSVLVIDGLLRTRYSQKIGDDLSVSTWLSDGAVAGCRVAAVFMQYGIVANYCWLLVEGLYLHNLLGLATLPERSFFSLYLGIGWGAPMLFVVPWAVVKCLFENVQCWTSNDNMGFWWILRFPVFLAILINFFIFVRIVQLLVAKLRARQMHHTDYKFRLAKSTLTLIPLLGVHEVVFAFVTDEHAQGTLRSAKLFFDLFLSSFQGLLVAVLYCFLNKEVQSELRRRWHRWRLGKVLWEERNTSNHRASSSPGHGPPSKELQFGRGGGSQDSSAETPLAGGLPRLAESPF

human GIP receptor = target: T1, human GIP receptor

| Binder | In vitro activity compared with native peptide (%) vs GLP-1 (cAMP EC50) (human GLP-1 receptor) | In vitro activity compared with native peptide (%) vs Glucagon (cAMP EC50) (human GCG receptor) | In vitro activity compared with native peptide (%) vs GIP (cAMP EC50) (human GIP receptor) |
| --- | --- | --- | --- |
| H[Aib]QGTFTSDVSSYLDGQAAKEFVAWLLKGC [triple agonist of SEQ ID NO: 6] | 17% | < 0.1% | < 0.1% |
| H[Aib]QGTFTSDYSIAMDEIHQKDFVNWLLNTC (bridge 16-20) [triple agonist of SEQ ID NO: 57] | 11.7% | < 0.1% | 0.3% |
| [Acetyl(2-(4-imidazolyl))][Aib]QGTFTSDYSICMDEIHQKDFVNWLLNTK (bridge 16-20) [triple agonist of SEQ ID NO: 49] | 29.8% | < 0.1% | 3.3% |
| H[Aib]QGTFTSDVSSYLLGQQQKEFIAWLVKGC [triple agonist of SEQ ID NO: 4] | 8.5% | < 0.1% | < 0.1% |
| H[Aib]QGTFTSDYSKYLDGQHAQCFVAWLLAGGGPSSGAPPPS [triple agonist of SEQ ID NO: 39] | 13.9% | 0.53% | < 0.1% |
| H[Aib]QGTFTSDYSKYLDEKRAKEFVQWLLDHHPSSGQPPPSC (bridge 16-20) [triple agonist of SEQ ID NO: 50] | 67.4% | 50.5% | 2.7% |
| HGQGTFTSDCSKQLDGQAAQEFVAWLLAGGPSSGAPPPS [triple agonist of SEQ ID NO: 44] | 1.3% | < 0.1% | < 0.1% |
| HGQGTFTSDCSKYLDGQRAQEFVAWLLAGGPSSGAPPPS [triple agonist of SEQ ID NO: 47] | 2.4% | < 0.1% | < 0.1% |
| HGQGTFTSDCSKYLDGQRAQDFVNWLLAGGPSSGAPPPS [triple agonist of SEQ ID NO: 48] | 1.5% | < 0.1% | < 0.1% |
| HGQGTFTSDCSKYLDEQHAQEFVAWLLAGGPSSGAPPPS [triple agonist of SEQ ID NO: 46] | 1.4% | < 0.1% | < 0.1% |
| HGQGTFTSDCSKYMDGQAAQDFVAWLLAGGPSSGAPPPS [triple agonist of SEQ ID NO: 45] | 6.6% | < 0.1% | < 0.1% |
| H[Aib]QGTFTSDYSIAMDEIHQKDFVNWLLNTKC (bridge 16-20) [triple agonist of SEQ ID NO: 35] | 7.5% | < 0.1% | 1.3% |
| H[Aib]QGTFTSDYSKYLDEKRQKEFVNWLLAQC (bridge (positions not given here); also: ring formation between two underlined residues) [triple agonist of SEQ ID NO: 56] | 57.9% | 4.9% | 0.8% |
| H[Aib]QGTFTSDYSIAMDEIHQKDFVNWLLAQC (bridge 16-20) [triple agonist of SEQ ID NO: 55] | 27.1% | 0.7% | 2.4% |
| H[Aib]QGTFTSDKSKYLDECAAQDFVQWLLDGGPSSGAPPPS [triple agonist of SEQ ID NO: 41] | 34.3% | < 0.1% | < 0.1% |
| H[Aib]QGTFTSDYSKYLDEKRQKEFVQWLLNTC (bridge 16-20) [triple agonist of SEQ ID NO: 51] | 14.4% | 2% | 0.1% |
| H[Aib]QGTFTSDYSKYLDEKRQKEFVNWLLAQKC (bridge 16-20) [triple agonist of SEQ ID NO: 34] | 19.1% | 0.92% | 0.6% |
| H[Aib]QGTFTSDVSSYLLGQQQKEFIAWLVKGGGPSSGAPPPSC [triple agonist of SEQ ID NO: 5] | 42.1% | < 0.1% | < 0.1% |
| [Acetyl(2-(4-imidazolyl))][Aib]QGTFTSDKSSYLDERAAQDFVQWLLDGGPSSGAPPPSS [triple agonist of SEQ ID NO: 38] | 2.3% |  |  |
| H[Aib]QGTFTSDYSKYLDEKRQKEFVQWLLDTC (bridge 16-20) [triple agonist of SEQ ID NO: 52] | 44.1% | 7.5% | 0.3% |
| H[Aib]QGTFTSDKSKYLDERACQDFVQWLLDGGPSSGAPPPS [triple agonist of SEQ ID NO: 40] | 75.2% | < 0.1% | < 0.1% |
| Y[Aib]QGTFTSDYSKYLDEKRAKEFVQWLLDHHPSSGQPPPSC (not fully specified (bridges)) [triple agonist of SEQ ID NO: 42] | 33.9% | 206% | 7.8% |
| H[Aib]EGTFTSDYSIAMDEIHQKDFVNWLLAQC (bridge 16-20) [triple agonist of SEQ ID NO: 53] | 161% | 8.4% | 1.3% |
| H[Aib]QGTFTSDYSKYLDEKRQKEFVQWLLNTKC (bridge 16-20) [triple agonist of SEQ ID NO: 58] | 39.1% | 2.6% | 0.2% |
| H[Aib]QGTFTSDVSSYLDGQAAKEFIAWLVKGC [triple agonist of SEQ ID NO: 1] | 3.2% | < 0.1% | < 0.1% |
| H[Aib]QGTFTSDYSKYLCEKRQKEFVQWLLNGGPSSGAPPPSG (bridge 16-20) [triple agonist of SEQ ID NO: 36] | 37.4% | 0.39% | 0.2% |
| Y[Aib]QGTFTSDYSKYLDEKRAKEFVQWLLDHHCSSGQPPPS (not fully specified (bridges)) [triple agonist of SEQ ID NO: 43] | 12.6% | 88.4% | 3.7% |
| H[Aib]EGTFTSDYSIAMDEIHQKDFVDWLLAEC (bridge 16-20) [triple agonist of SEQ ID NO: 54] | 30.6% | 1.4% | 0.1% |
| H[Aib]QGTFTSDYSKYLDECRQKEFVQWLLNGGPSSGAPPPSG (bridge 16-20) [triple agonist of SEQ ID NO: 37] | 236% | 6.21% | 2.2% |

— patent US20240293512A1 (HANMI PHARM, published 2024)
